The target in assay [1] is T1, native nuclear HMG1 prepared from 293H cells by freeze thaw (human, UniProt P09429 1-215).
T1 construct: unpurified cell lysate supernatant
T1 sequence (looked up): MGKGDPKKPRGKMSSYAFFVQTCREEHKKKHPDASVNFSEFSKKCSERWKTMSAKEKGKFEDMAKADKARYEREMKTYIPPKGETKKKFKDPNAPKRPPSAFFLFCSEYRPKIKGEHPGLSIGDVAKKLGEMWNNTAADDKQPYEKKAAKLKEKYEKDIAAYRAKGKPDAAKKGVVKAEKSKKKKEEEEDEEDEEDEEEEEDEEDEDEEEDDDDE
Description: sandwich ELISA: antibody captured on anti-human IgG Fc, native HMGB1 0.7 ug/ml in solution, mouse anti-HMGB1 and anti-mouse IgG-HRP, OD 450. On the procedure: Sandwich ELISA (soluble HMG1): Immunoplates (EIA/RIA plate, High binding, Costar) were coated with anti human IgG Fc at 10 μg/ml in PBS (pH 7.2) and incubated at 4° C. overnight. The coating reagent was removed and the plates were rinsed briefly with PBS. The plates were then blocked with 4% milk for 1 hour at 37° C. and rinsed with PBS. The anti-HMG1 antibodies were diluted in 4% milk. For serial dilutions, the antibodies were used at a starting concentration of 20 μg/ml. The diluted anti-HMG1 antibodies were then added into plate and incubated for 1 hr at 37° C. The plate was then washed 10 times with PBST (PBS/0.1% tween 20) and incubate with antigen (HMGB1, 2 μg/ml; or 0.7 μg/ml for native HMGB1) in 4% milk and incubated at 37° C. for 1 h. The plate was then wash 10 times and incubated with mouse anti-HMGB1, 1 μg/ml in 4% milk at 37° C. for 1 h. The plate was washed 10 times and incubated with anti-mouse IgG-HRP at 1:1000 at 37° C. for 1 h. The plate was then washed and developed. HRP activity was detected with Sureblue HRP substrate (KPL). Plates were read at 450 nm using a Kinetic Microplate Reader (Molecular Devices).
(In general: ELISA stands for enzyme-linked immunosorbent assay.)

Assay [2] has as its target T2, HMGB1 in joint lysates of adjuvant induced arthritis (AIA) rats (rat, UniProt P63159 2-215).
T2 construct: also called HMGB1 from arthritis joints; AA joint lysates
T2 sequence (looked up): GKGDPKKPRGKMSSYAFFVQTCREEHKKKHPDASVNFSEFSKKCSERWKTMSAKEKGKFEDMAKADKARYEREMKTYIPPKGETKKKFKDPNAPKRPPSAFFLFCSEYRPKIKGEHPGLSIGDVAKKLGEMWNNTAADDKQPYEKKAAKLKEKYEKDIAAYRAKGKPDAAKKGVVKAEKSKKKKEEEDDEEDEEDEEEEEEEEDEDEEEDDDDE
Description: sandwich ELISA and immunoprecipitation with Western blot. How it is done:
HMGB1 Detection from Biological Samples: For detection of the HMGB1 from AA joint homogenates and peritonitis sera, sandwich ELISA was performed. Goat anti-human Fc (Pierce) 14 μg/ml in PBS was coated on Immunlon IV microtiter plate over night at 4° C. After washing and blocking with 5% milk 1 hr at room temperature, G4 or S6 in blocking buffer (10 μg/ml) were added to each well of the blocked plate. The plate was washed 1 hour later and 25 μl of AIA homogenates containing 0.8 μg/ml of HMGB1 or peritonitis sera containing 7 μg/ml of HMGB1 in 0.5 M NaCl/blocking buffer were added to the wells at two fold serial dilutions. The unbound materials were removed by washing one hr after incubation. The bound HMGB1 was detected by a mouse anti-HMGB1 antibody at 2 μg/ml followed by an anti-mouse antibody conjugated with horseradish peroxidase. Mouse peritonitis sera was obtained by heart puncture 7 days after infection with heat killed staphylococcus aureus. Joint lysate was prepared from the whole paw of AIA rats as described in Example 6 below. Human sepsis sera were purchased from a commercial source.
Immunoprecipitation and Western Blot: Anti-HMGB1 mAbs (G4 and S6) and isotype control were first biotinylated using EZ-Link Sulfo-NHS-LC-Biotin as instructed by the manufacturer (Pierce). After labeling, the mAb was tested for binding to HMGB1 by ELISA with unlabeled mAbs as controls. […]

2 molecules from US20080311122A1 (AstraZeneca / MedImmune, published 2008) can be followed below.

B1: anti-HMG1 antibody S2 (antibody, V domains shown)
VH: EVQLLESGGGLVQPGGSLRLSCAASGFTFSGYMMVWVRQAPGKGLEWVSRISPSGGQTGYADSVKGRFTISRDNSKNTLYLQMNSLRAEDTAVYYCAREEGGSYGAFDIWGQGTMVTVSS
VL: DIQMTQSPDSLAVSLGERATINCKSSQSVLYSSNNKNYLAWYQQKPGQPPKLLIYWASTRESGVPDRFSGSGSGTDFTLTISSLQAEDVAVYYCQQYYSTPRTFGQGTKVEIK
notes: also called ATCC PTA-6142
A word on the EC50 (read off the curve): it is the midpoint of the concentration-response curve. A lower EC50 (read off the curve) goes with an effect from little substance. Consider B1, for which the “EC50 (read off the curve)” value in assay [1] is around 0.8 µg/mL.

B2: anti-HMG1 antibody G4 (antibody, V domains shown)
VH: EVQLLESGGGLVQPGGSLRLSCAASGFTFSWYDMTWVRQAPGKGLEWVSSISPSGGYTKYADSVKGRFTISRDNSKNTLYLQMNSLRAEDTAVYYCTTEFYDYLDVWGKGTTVTVSS
VL: DIQMTQSPGTLSLSPGEGATLSCRASQSVSSTYLAWYQQKPGQAPRLLIYEASKRATGTPARFSGSGSGTDFTLSISSLEPEDFAVYYCQHRHNWPPQWTFGQGTKVEVK
notes: also called ATCC PTA-6258
In the case of B2, the binding result in assay [2] is recorded as “binds”.
